# ± gives the standard deviation of the averaged measurements.
# System: ATP
# Assay: switch fluorescence ratio, 500 uM ATP over buffer (Cy3 cluster intensity, sum of 5 cycles each) (fold (ratio)); higher = stronger signal-on switching upon ATP binding; sequences stand for … in TCGTCGGCAGCGTCAGATGTGTATAAGAGACAGTTTTTTTTTTTTTTTTTTTTTTTTT…TC
# Conditions: aptamer strand: ATP DNA aptamer (quencher-CACCTGGGGGAGTATTGCGGAGGAAGG + anchor), 100 nM annealed; ATP concentration: 500 uM
# Procedure, shortened: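 Values give the fluorescence ratio for each switch-domain sequence, averaged from per-cluster ratios of summed target-cycle to summed buffer-cycle Cy3 intensity. The Cy3-labelled switching-strand clusters sat on a modified Illumina MiSeq flow-cell, were annealed to 100 nM quencher-labelled ATP aptamer, and were imaged in selection buffer, then after 15 min with 500 uM ATP at 22 °C. Five cycles ran with NaOH stripping and re-annealing between them, and clusters outside 100-1000 RFU were excluded.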
# 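Further: ATP exposure 15 min at 22 °C before imaging.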
row,Sequence,switch fluorescence ratio
1,GCTCTAGATC,1.35 ± 0.07
2,GCTCTAGTTT,1.02 ± 0.027
3,GCTCTATGGT,1.006 ± 0.0078
4,GCTCTATGTG,1.01 ± 0.018
5,GCTCTGACGG,1.054 ± 0.0086
6,GCTCTGGGGG,1.03 ± 0.039
7,GCTCTTCCCG,1.319 ± 0.011
8,GCTCTTTGCT,0.988 ± 0.044
9,GCTGAAAGGA,0.999 ± 0.061
10,GCTGACAGCG,0.959 ± 0.017
11,GCTGAGAATG,0.999 ± 0.021
12,GCTGAGTAAC,0.99 ± 0.0017
13,GCTGATGATA,0.967 ± 0.026
14,GCTGATGTTC,1.0082 ± 0.001
15,GCTGCATATA,1.066 ± 0.0095
16,GCTGCGGTTT,0.993 ± 0.013
17,GCTGCTGGCC,0.999 ± 0.044
18,GCTGCTGTTG,1.06 ± 0.049
19,GCTGGATTGC,0.916 ± 0.048
20,GCTGGCACAC,1.04 ± 0.021
21,GCTGGCAGCC,1.01 ± 0.069
22,GCTGGCGTCA,1 ± 0.05
23,GCTGGGAGTC,1 ± 0.029
24,GCTGGGGCAA,1.01 ± 0.037
25,GCTGGGGCCC,0.9977 ± 0.005

row,Sequence,switch fluorescence ratio
1,GCTGGGGCGT,0.9851 ± 0.005
2,GCTGGGGCTT,0.991 ± 0.014
3,GCTGGGGGTG,1.01 ± 0.012
4,GCTGGGTCTT,1.03 ± 0.023
5,GCTGGGTGCT,0.984 ± 0.015
6,GCTGGTGCTC,1.06 ± 0.05
7,GCTGGTTGCT,0.994 ± 0.039
8,GCTGGTTGGC,0.964 ± 0.016
9,GCTGTAACGA,0.998 ± 0.017
10,GCTGTAAGGC,1.01 ± 0.039
11,GCTGTCAGCG,1.02 ± 0.024
12,GCTGTCTGGT,1.0181 ± 0.00043
13,GCTGTGAGTT,0.9821 ± 0.006
14,GCTGTTGGAG,1.02 ± 0.031
15,GCTGTTGGGA,0.9968 ± 0.0078
16,GCTGTTGGTG,1.002 ± 0.0037
17,GCTGTTTGTA,0.999 ± 0.03
18,GCTGTTTTTC,0.966 ± 0.03
19,GCTGTTTTTT,1 ± 0.044
20,GCTTAAGAGG,1.03 ± 0.017
21,GCTTAATGT,1 ± 0.083
22,GCTTATGAAC,1.019 ± 0.0045
23,GCTTATTGTT,0.99355 ± 0.00014
24,GCTTCAGGGG,1.09 ± 0.12
25,GCTTCCAGGG,1.14 ± 0.094

row,Sequence,switch fluorescence ratio
1,GCTTCCGGCC,1.15 ± 0.054
2,GCTTCCTTTT,1.01 ± 0.022
3,GCTTCGGGGC,1.01 ± 0.016
4,GCTTCTACAG,1.047 ± 0.01
5,GCTTCTCACA,0.981 ± 0.028
6,GCTTCTGGGG,1.03 ± 0.028
7,GCTTCTTGGC,0.967 ± 0.034
8,GCTTGAGATT,0.986 ± 0.015
9,GCTTGCAGTG,0.995 ± 0.033
10,GCTTGCCAAA,0.998 ± 0.0083
11,GCTTGCCTAG,0.962 ± 0.038
12,GCTTGGATCG,0.993 ± 0.022
13,GCTTGGCTAT,0.989 ± 0.022
14,GCTTGGGGAT,1.01 ± 0.033
15,GCTTGGGGCA,0.967 ± 0.024
16,GCTTGGGGTC,0.953 ± 0.011
17,GCTTGGGTTC,1 ± 0.018
18,GCTTGGTCAT,0.9714 ± 0.0035
19,GCTTGTACAT,0.982 ± 0.018
20,GCTTGTATTA,0.985 ± 0.016
21,GCTTGTCGGC,0.99 ± 0.035
22,GCTTGTGCTG,0.978 ± 0.053
23,GCTTGTTATG,0.9931 ± 0.007
24,GCTTGTTGTT,0.995 ± 0.017
25,GCTTTAAAAT,1.004 ± 0.0088

row,Sequence,switch fluorescence ratio
1,GCTTTAATTC,1.029 ± 0.0049
2,GCTTTAATTG,1.004 ± 0.0097
3,GCTTTAATTT,1.07 ± 0.045
4,GCTTTACACC,1.19 ± 0.092
5,GCTTTAGCAG,1.03 ± 0.02
6,GCTTTAGGTA,0.9843 ± 0.0058
7,GCTTTATCGG,0.965 ± 0.025
8,GCTTTATGAA,1.02 ± 0.054
9,GCTTTCACGA,0.9879 ± 0.0036
10,GCTTTCCAGA,0.9949 ± 0.0059
11,GCTTTCCGGC,1.02 ± 0.078
12,GCTTTTAGGT,0.968 ± 0.06
13,GCTTTTGCTG,0.997 ± 0.013
14,GCTTTTGGCT,0.992 ± 0.023
15,GCTTTTTGCT,1.012 ± 0.0054
16,GCTTTTTTAC,1.38 ± 0.32
17,GGAAAAAAGT,1.02 ± 0.047
18,GGAAAAAGAT,1.04 ± 0.018
19,GGAAAAAGCC,0.9562 ± 0.0042
20,GGAAAATAGG,0.977 ± 0.061
21,GGAAAATGGG,1.02 ± 0.065
22,GGAAAGAAGG,1 ± 0.032
23,GGAAAGACCG,1 ± 0.012
24,GGAAATATAG,0.989 ± 0.012
25,GGAACAGGTG,3.49 ± 2

# — the supplement of paper PMC10126150
